Patent publication US9618524B2, “Method, composition, isolation and identification of a plaque particle and related biomarker” (Plaxgen Inc., priority 2012, dated 2017)

B1: Cluster of Ig alpha-1 chain C region (protein, UniProt P01876 1-398, looked up)
Immunoglobulin heavy constant …: ASPTSPKVFPLSLCSTQPDGNVVIACLVQGFFPQEPLSVTWSESGQGVTARNFPPSQDASGDLYTTSSQLTLPATQCLAGKSVTCHVKHYTNPSQDVTVPCPVPSTPPTPSPSTPPTPSPSCCHPRLSLHRPALEDLLLGSEANLTCTLTGLRDASGVTFTWTPSSGKSAVQGPPERDLCGCYSVSSVLPGCAEPWNHGKTFTCTAAYPESKTPLTATLSKSGNTFRPEVHLLPPPSEELALNELVTLTCLARGFSPKDVLVRWLQGSQELPREKYLTWASRQEPSQGTTTFAVTSILRVAAEDWKKGDTFSCMVGHEALPLAFTQKTIDRLADWQMPPPYVVLDLPQETLEEETPGANLWPTTITFLTLFLLSLFYSTALTVTSVRGPSGNREGPQY
B2: Vitamin D-binding protein (protein)
chain: LERGRDYEKNKVCKEFSHLGKEDFTSLSLVLYSRKFPSGTFEQVSQLVKEVVSLTEACCAEGADPDCYDTRTSALSAKSCESNSPFPVHPGTAECCTKEGLERKLCMAALKHQPQEFPTYVEPTNDEICEAFRKDPKEYANQFMWEYSTNYGQAPLSLLVSYTKSYLSMVGSCCTSASPTVCFLKERLQLKHLSLLTTLSNRVCSQYAAYGEKKSRLSNLIKLAQKVPTADLEDVLPLAEDITNILSKCCESASEDCMAKELPEHTVKLCDNLSTKNSKFEDCCQEKTAMDVFVCTYFMPAAQLPELPDVELPTNKDVCDPGNTKVMDKYTFELSRRTHLPEVFLSKVLEPTLKSLGECCDVEDSTTCFNAKGPLLKKELSSFIDKGQELCADYSENTFTEYKKKLAERLKAKLPDATPTELAKLVNKHSDFASNCCSINSPPLYCDSEIDAELKNIL
B3: Ig alpha-2 chain C region (protein)
chain: ASPTSPKVFPLSLDSTPQDGNVVVACLVQGFFPQEPLSVTWSESGQNVTARNFPPSQDASGDLYTTSSQLTLPATQCPDGKSVTCHVKHYTNSSQDVTVPCRVPPPPPCCHPRLSLHRPALEDLLLGSEANLTCTLTGLRDASGATFTWTPSSGKSAVQGPPERDLCGCYSVSSVLPGCAQPWNHGETFTCTAAHPELKTPLTANITKSGNTFRPEVHLLPPPSEELALNELVTLTCLARGFSPKDVLVRWLQGSQELPREKYLTWASRQEPSQGTTTYAVTSILRVAAEDWKKGETFSCMVGHEALPLAFTQKTIDRMAGKPTHINVSVVMAEADGTCY
B4: Isoform 2 of Haptoglobin-related protein (protein)
chain: MHVCVCVCVCVYMPVCVDACMCCEAGRPAFRSFLFSLCSDLGAVISLLLWGRQLFALYSGNDVTDISDDRFPKPPEIANGYVEHLFRYQCKNYYRLRTEGDGVYTLNDKKQWINKAVGDKLPECEAVCGKPKNPANPVQRILGGHLDAKGSFPWQAKMVSHHNLTTGATLINEQWLLTTAKNLFLNHSENATAKDIAPTLTLYVGKKQLVEIEKVVLHPNYHQVDIGLIKLKQKVLVNERVMPICLPSKNYAEVGRVGYVSGWGQSDNFKLTDHLKYVMLPVADQYDCITHYEGSTCPKWKAPKSPVGVQPILNEHTFCVGMSKYQEDTCYGDAGSAFAVHDLEEDTWYAAGILSFDKSCAVAEYGVYVKVTSIQHWVQKTIAEN
B5: Ceruloplasmin (protein)
chain: KEKHYYIGIIETTWDYASDHGEKKLISVDTEHSNIYLQNGPDRIGRLYKKALYLQYTDETFRTTIEKPVWLGFLGPIIKAETGDKVYVHLKNLASRPYTFHSHGITYYKEHEGAIYPDNTTDFQRADDKVYPGEQYTYMLLATEEQSPGEGDGNCVTRIYHSHIDAPKDIASGLIGPLIICKKDSLDKEKEKHIDREFVVMFSVVDENFSWYLEDNIKTYCSEPEKVDKDNEDFQESNRMYSVNGYTFGSLPGLSMCAEDRVKWYLFGMGNEVDVHAAFFHGQALTNKNYRIDTINLFPATLFDAYMVAQNPGEWMLSCQNLNHLKAGLQAFFQVQECNKSSSKDNIRGKHVRHYYIAAEEIIWNYAPSGIDIFTKENLTAPGSDSAVFFEQGTTRIGGSYKKLVYREYTDASFTNRKERGPEEEHLGILGPVIWAEVGDTIRVTFHNKGAYPLSIEPIGVRFNKNNEGTYYSPNYNPQSRSVPPSASHVAPTETFTYEWTVPKEVGPTNADPVCLAKMYYSAVEPTKDIFTGLIGPMKICKKGSLHANGRQKDVDKEFYLFPTVFDENESLLLEDNIRMFTTAPDQVDKEDEDFQESNKMHSMNGFMYGNQPGLTMCKGDSVVWYLFSAGNEADVHGIYFSGNTYLWRGERRDTANLFPQTSLTLHMWPDTEGTFNVECLTTDHYTGGMKQKYTVNQCRRQSEDSTFYLGERTYYIAAVEVEWDYSPQREWEKELHHLQEQNVSNAFLDKGEFYIGSKYKKVVYRQYTDSTFRVPVERKAEEEHLGILGPQLHADVGDKVKIIFKNMATRPYSIHAHGVQTESSTVTPTLPGETLTYVWKIPERSGAGTEDSACIPWAYYSTVDQVKDLYSGLIGPLIVCRRPYLKVFNPRRKLEFALLFLVFDENESWYLDDNIKTYSDHPEKVNKDDEEFIESNKMHAINGRMFGNLQGLTMHVGDEVNWYLMGMGNEIDLHTVHFHGHSFQYKHRGVYSSDVFDIFPGTYQTLEMFPRTPGIWLLHCHVTDHIHAGMETTYTVLQNEDTKSG
B6: Apolipoprotein M (protein)
chain: MFHQIWAALLYFYGIILNSIYQCPEHSQLTTLGVDGKEFPEVHLGQWYFIAGAAPTKEELATFDPVDNIVFNMAAGSAPMQLHLRATIRMKDGLCVPRKWIYHLTEGSTDLRTEGRPDMKTELFSSSCPGGIMLNETGQGYQRFLLYNRSPHPPEKCVEEFKSLTSCLDSKAFLLTPRNQEACELSNN

How the values were obtained:
Test in all cases: Mass spectroscopy proteomics, semi-quantitative binding affinity of serum proteins (plaqueproteome, Table 2)
Details in all cases: higher number = stronger affinity
[1] = system: Tau plaque particles; set-up: species or system human
Outline: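 Serum or plasma proteins captured on Thioflavin S-labelled Tau plaque particles (Tau-74, Tau-275 oligomers preformed in PBS at 37° C for 2 h; 1 h co-incubation at 37° C) were isolated by FACS sorting, then tryptically digested and identified by MS/MS (Sequest, human UniProt, strict trypsin).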

[2] = target: T1, Abeta-42 plaque particles (Homo sapiens, UniProt P05067)
T1 construct: Abeta 1-42
Outline: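 AD patient serum or plasma (50% in PBS) was incubated with Abeta-42 aggregates (30 μg) for 1 h at 37 °C, then stained with Thioflavin S for 30 min. Labeled particles were FACS-sorted, trypsin/Lys-C digested overnight and analyzed by MS/MS. Sequest searched human UniProt; Scaffold/Protein Prophet validated the identifications.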

[3] = system: High Density cholesterol (Chl Large) plaque particles; set-up: species or system human
Outline: (§1)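 Atherosclerotic plasma/serum (50% in PBS) + 30 μg cholesterol aggregates, 1 hr 37° C; FACS gates split low- vs high-density particles. Acetone precipitation, urea/ProteaseMAX, acrylamide alkylation, overnight Trypsin/Lys C at 37° C; Sequest search, Scaffold/Protein Prophet validation.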

[4] = system: Low density cholesterol (Chl small) plaque particles; set-up: species or system human
Outline: as §1

[5] = target: T2, alpha-synuclein plaque particles (Homo sapiens, UniProt P37840)
T2 construct: 140 amino acids polypeptide
Outline: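 AD-subject plasma or serum (800 μL of 50%) mixed with 30 μg preformed alpha-synuclein aggregates for 1 h at 37 °C; Thioflavin S-positive particles isolated by flow sorting. After reduction, acrylamide alkylation and overnight tryptic digestion, serum proteins identified by MS/MS with Sequest and Scaffold.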

Row | Molecule | Semi-quantitative analysis of proteins binding to different plaque particles: Tau [1] | Semi-quantitative analysis of proteins binding to different plaque particles: Abeta-42 [2] | Semi-quantitative analysis of proteins binding to different plaque particles: Chl Large [3] | Semi-quantitative analysis of proteins binding to different plaque particles: Chl small [4] | Semi-quantitative analysis of proteins binding to different plaque particles: Synuclein [5]
1 | B1 | 12 | 9 | 10 | 9 | 12
2 | B2 | 19 | 12 | 21 | 18 | 17
3 | B3 | 10 | 7 | 9 | 6 | 10
4 | B4 | 11 | 11 | 15 | 12 | 14
5 | B5 | 20 | 9 | 20 | 22 | 21
6 | B6 | 0 | 18 | 0 | 0 | 0
